Test results reported in US20240108702A1, “Use Of Naturally Occurring Cyclic Peptides For Treatment Of SARS-COV-2 Infection” (The University of Southern California, priority 2021, published 2024).
Values joined by “and” are separate entries in the source; they are usually repeats but may differ in a detail not shown here. Identical values can stand only once. “Also recorded” adds a separate entry of the source. Where no end group is shown, it is not given here. [ ]: non-standard residue; d: D form. 14C‑Gly = 14C labelled glycine

Key:
SARS-CoV-2 = test: Antiviral assay, SARS-CoV-2 replication in Calu3 2B4 cells (RT-qPCR); assay type: cell-based; conditions: 24 h
TMPRSS2 [1] = biological target: T1, TMPRSS2 (Homo sapiens, UniProt O15393); test: Cellular TMPRSS2 inhibition assay in Caco-2 cells; assay type: cell-based; set-up: using Caco-2 and Calu3 cells, both of which express surface TMPRSS2; endogenous in cells; host or cells: Caco-2 cells
Experimental: Caco-2 cells (1×10^5 per well) were incubated in 96 well plates with 0 to 50 μg/ml of the indicated peptide in the presence of a TMPRSS2 substrate (Boc-Leu-Gly-Arg-AMC) in 50 mM Tris-HCl, pH 7.4. Substrate conversion was monitored in a fluorescence plate reader for 2 hours and inhibition of enzyme activity was expressed relative to a solvent control.
(§1) TMPRSS2 inhibition assays. Peptides (0-50 μg/ml) were tested for their inhibitory activities against TMPRSS2 in cellular assays using Vero E6 cells, Caco-2 cells, or Calu-3 cells using standard conditions. TMPRSS2 activity was assayed in real time for 120 min by monitoring the cleavage of the TMPRSS2 substrate, Boc-Leu-Gly-Arg-AMC. Following the 2 h enzyme assay, cells were evaluated for viability using the CellTiter-Glo cellular toxicity assay.

TMPRSS2 [2] = biological target: T1, TMPRSS2; test: Cellular TMPRSS2 inhibition assay in Calu3 cells; assay type: cell-based; set-up: endogenous in cells; host or cells: Calu3 (Calu-3) cells; conditions: Calu3 cells
Experimental: as §1

[3] = Biodistribution of 14C-radiolabeled Peptide 1 in female rats; assay type: in vivo, SD rats
Experimental: Biodistribution [^14C]-radiolabeled Peptide 1 (SEQ ID NO. 1) in female rats: Five SD rats (195 and 200 g b.w.) with jugular vein catheters (JVC) were each injected with 200 μL of 5 mg/mL Peptide 1 (SEQ ID NO. 1) in saline containing ˜4 million CPM of [^14C]-Peptide 1. The ^14C-Peptide 1 (SEQ ID NO. 1) was created by substituting the natural glycine residue on position 1 of the cyclic peptide with a ^14C labeled glycine. The JVC line was cleaned with 70% isopropyl alcohol, and the line plug was removed. A new 25 G blunt needle with a 1 mL syringe containing injectable solutions was used for each injection. The JVC line was first cleared with 100 μL saline, followed by the Peptide 1 (SEQ ID NO. 1) solution, then cleared with an additional 100 μL of saline. Tissues and organs were harvested into separated vials and weighed. Small organs such as lymph nodes, kidneys, and heart/lungs were processed whole. Large organs (e.g., liver, muscles, subcutaneous fat pads) were sampled from representative areas or those of interest (e.g., subcutis at the injection site). Organs were then dissolved in 2 mL Solvable™ (Perkin Elmer 6NE9100) for up to 1 g of tissue. For a large section of skin and other organs, 4 or 6 mL were added. Vials were incubated in a 60° C. water bath for 18-22 hours, then removed and allowed to cool to room temperature. […]

TMPRSS2 [4] = biological target: TMPRSS2 (UniProt O15393 1-492, limits assumed); test: cell-based or functional assay
Sequence of TMPRSS2 (UniProt O15393 1-492, limits assumed) (O15393 whole entry): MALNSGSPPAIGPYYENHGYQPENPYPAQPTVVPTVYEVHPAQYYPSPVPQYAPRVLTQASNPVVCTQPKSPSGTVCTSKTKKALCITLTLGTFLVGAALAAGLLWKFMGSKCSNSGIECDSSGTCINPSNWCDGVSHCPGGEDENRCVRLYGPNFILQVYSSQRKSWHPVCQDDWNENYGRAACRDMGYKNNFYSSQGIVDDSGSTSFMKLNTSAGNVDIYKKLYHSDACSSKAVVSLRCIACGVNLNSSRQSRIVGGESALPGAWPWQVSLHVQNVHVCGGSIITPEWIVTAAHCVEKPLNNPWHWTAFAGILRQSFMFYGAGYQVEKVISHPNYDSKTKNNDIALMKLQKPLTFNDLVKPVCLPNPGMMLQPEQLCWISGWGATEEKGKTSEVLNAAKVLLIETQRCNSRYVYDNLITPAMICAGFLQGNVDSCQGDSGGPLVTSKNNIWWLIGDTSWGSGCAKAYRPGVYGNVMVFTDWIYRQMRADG

T1 sequence (O15393 whole entry): as above

## Peptide 2: naturally occurring cyclic peptide (theta defensin), SEQ ID NO. 2, FIG. 1A (GVCRCLCRRGVCRCLCRR; cyclic; listed as Macaca mulatta)
SARS-CoV-2
  SARS-CoV-2 viral replication (N gene expression relative to ACTB): highly effective in blocking viral replication

## Peptide 3: naturally occurring cyclic peptide (theta defensin), SEQ ID NO. 3, FIG. 1A (GFCRCICTRGFCRCICTR; cyclic; listed as Macaca mulatta)
TMPRSS2 [1]; Caco-2 cells, 0 to 50 μg/ml, FIG. 10
  inhibition of TMPRSS2: higher than Peptide 1
TMPRSS2 [2]
  inhibition of TMPRSS2: similarly inhibited TMPRSS2

## Peptide 5: naturally occurring cyclic peptide (theta defensin), SEQ ID NO. 5, FIG. 1B (GICRCLCRRGVCRCICVL; not fully specified (bridges); also: cyclic; listed as Macaca mulatta)
SARS-CoV-2
  SARS-CoV-2 viral replication (N gene expression relative to ACTB): no apparent antiviral effect; also recorded: inactive
TMPRSS2 [1]; highest concentration tested (50 μg/mL), cell line not stated
  TMPRSS2 inhibitory activity: no TMPRSS2 inhibitory activity

## ^14C-Peptide 1: created by substituting the natural glycine residue on position 1 of the cyclic peptide with a 14C labeled glycine ([14C‑Gly]FCRCLCRRGVCRCICTR; not fully specified (bridges); also: cyclic; listed as Macaca mulatta)
[3]; 1 h after i.v. administration
  tissue distribution (density of 14C): highest density measured in the liver, followed by the kidney
[3]; single i.v. dose equivalent to 5 mg/kg, 24 h
  14C counts recovered in urine: 7% and 8.5%

B1: Peptide 1 (SEQ ID NO. 1) (peptide)
peptide: cyclo(GFCRCLCRRGVCRCICTR)
modifications: disulfide (positions not given here); also: three disulfide bonds, pairing not given here
TMPRSS2 [4]
  IC50 of enzyme inhibition (cleavage of Boc-Leu-Gly-Arg-AMC by cells): 6.5 to 8 µg/mL
